Experimental findings from the RNAGym collection of RNA variant scans (doi:10.7554/elife.90254) are described below.

B1: OR4K15 (parent)
chain: GUUAACGGUCAUAGGCCAUGGAAACUAGGAGCACCAUUUCGCUGCCAGUGAAGAAAUGAACAAAGAAAAUCUGGGCCAGGCAGGCAUCAAAAGAAAUAGUCUUGCGCUCAACCAGAAAGUCUGUAAUCAUUUUAAGGGUA

This series covers variants of B1. The series can be described thus: self-cleavage, relative activity (ratio to wild type); higher = more cleavage; in vitro, sequencing; the parent is a self-cleaving ribozyme.
Take A67G A118G: the self-cleavage came to 0.95.

Turning to A66U A96G, the self-cleavage worked out at 1.17.

As to A69G A96U, the self-cleavage worked out at 1.85.

Turning to A69U U87A, the self-cleavage worked out at 1.79.

On to A68U A92G, for which the self-cleavage is 0.44.

A68G G106U: the self-cleavage was 0.02.

A67G U102C: the self-cleavage amounted to 1.56.

As for A67G U102A, the self-cleavage is 1.3.

Regarding A69U A82U, the self-cleavage is 0.04.

Regarding A69U A82G, the self-cleavage was 0.63.

Consider A69G U139C, for which the self-cleavage was 1.24.

Take A67G A89G: the self-cleavage came out at 0.82.

On to A67U U130A, for which the self-cleavage came out at 1.56.

A68C U132C: the self-cleavage is 1.61.

Regarding A68G A110U, the self-cleavage was 1.49.

A68G A110G: the self-cleavage is 0.25.

As to A67G A82U, the self-cleavage turned out to be 0.07.

Turning to U70C C101G, the self-cleavage came out at 0.11.

U70C C101U: the self-cleavage stood at 0.12.

Regarding U70A U102A, the self-cleavage stood at 0.25.

A68G A118U: the self-cleavage was 0.83.

For A68G A118C, the self-cleavage was 0.67.

Regarding A68G A118G, the self-cleavage was 0.77.

Consider A66G U139A, for which the self-cleavage is 1.72.

For A67G A98G, the self-cleavage is 0.36.

Regarding U70C U130C, the self-cleavage was 0.21.

With A66U A90G, the self-cleavage is 1.22.

Consider A69G A111G, for which the self-cleavage was 0.03.

Consider A68U G137A, for which the self-cleavage turned out to be 1.39.

Consider U70C A78G, for which the self-cleavage worked out at 0.26.

A69G A110G: the self-cleavage came out at 0.14.

Regarding A69G A110U, the self-cleavage was 0.98.

On to A67G G137A, for which the self-cleavage stood at 1.67.

For A67U A69U, the self-cleavage amounted to 1.69.

With A69G U70C, the self-cleavage came out at 0.25.

Consider A68G U72A, for which the self-cleavage was found to be 0.26.

On to A68G U72C, for which the self-cleavage was 0.29.

Turning to A67U A116C, the self-cleavage is 0.1.

For A68G A135U, the self-cleavage was found to be 0.68.

Turning to U70C A94G, the self-cleavage was determined as 0.77.

As to A69G A140G, the self-cleavage came out at 1.93.

In the case of A68G G75A, the self-cleavage is 0.1.

In the case of U70A A92G, the self-cleavage is 0.4.

With A68G A116G, the self-cleavage was 0.8.

Consider A68G C88U, for which the self-cleavage was found to be 1.57.

A67U A135G: the self-cleavage was found to be 2.46.

In the case of A69U A140U, the self-cleavage was 2.31.

In the case of A66U C81U, the self-cleavage worked out at 0.05.

For A67U A78C, the self-cleavage was found to be 0.23.

On to A68G A96U, for which the self-cleavage is 2.13.

For the variant A68G A96C, the self-cleavage is 1.42.

Turning to A68G A69C, the self-cleavage stood at 0.94.

Consider A68G A69G, for which the self-cleavage amounted to 0.87.

In the case of A68G A69U, the self-cleavage was determined as 1.38.

Regarding U70A U108C, the self-cleavage came out at 0.01.

For A67G A86U, the self-cleavage was 2.13.

Take A69U U100C: the self-cleavage was 2.44.

Take A67G A134U: the self-cleavage worked out at 1.12.

Turning to A69C, the self-cleavage stood at 1.05.

In the case of A69G, the self-cleavage is 1.16.

As to A69U, the self-cleavage worked out at 1.81.

Take A67U A114G: the self-cleavage is 0.66.

Take A68G U97C: the self-cleavage is 1.3.

Turning to A67G A92G, the self-cleavage stood at 1.31.

A67G A92C: the self-cleavage came to 1.62.

For the variant A67U G75A, the self-cleavage turned out to be 0.06.

Turning to A66U A69G, the self-cleavage is 1.06.

As for A69U U130C, the self-cleavage was 0.9.

Turning to A67G A68C, the self-cleavage worked out at 0.53.

Consider A67G A68G, for which the self-cleavage was 1.5.

With A69U U132C, the self-cleavage came out at 1.11.

For U70C C113G, the self-cleavage was found to be 0.02.

U70C C113U: the self-cleavage was found to be 0.02.

On to A68G G138A, for which the self-cleavage was found to be 1.67.

As for A68G C112U, the self-cleavage stood at 0.02.

On to A66U U124C, for which the self-cleavage came to 1.25.

Regarding A67G U131C, the self-cleavage amounted to 1.2.

Take U70A A111G: the self-cleavage came out at 0.04.

With U70C G106A, the self-cleavage came to 0.01.

A68G A111U: the self-cleavage worked out at 0.21.

For A67C U131C, the self-cleavage stood at 1.86.

Regarding A67G U124A, the self-cleavage amounted to 0.87.

For the variant A67G U124G, the self-cleavage came out at 1.24.

A67G G75C: the self-cleavage is 0.03.

As to A68G U87A, the self-cleavage is 0.96.

Turning to A69G A114G, the self-cleavage turned out to be 0.17.

Consider A68G A92C, for which the self-cleavage is 1.7.

Take A68G A92G: the self-cleavage was 1.55.

Consider U70C U132A, for which the self-cleavage came to 0.38.

Turning to U70C U132C, the self-cleavage amounted to 0.96.

Turning to U70C A125U, the self-cleavage amounted to 1.06.

With U70C A125G, the self-cleavage was determined as 0.19.

Turning to U70C A89U, the self-cleavage came to 1.17.

On to U70C A89G, for which the self-cleavage was found to be 0.58.

Consider U70C A89C, for which the self-cleavage worked out at 0.49.

As to A66U U122C, the self-cleavage amounted to 1.09.

Regarding A69G A89U, the self-cleavage was 1.53.

As to A68U U127C, the self-cleavage is 0.82.

As for A68U U127A, the self-cleavage is 2.58.

U70A U103C: the self-cleavage stood at 0.68.

As for A68U U122C, the self-cleavage came out at 1.51.

A66G U131C: the self-cleavage came to 1.04.

A68G C77A: the self-cleavage was determined as 0.54.

Take A67G A94U: the self-cleavage was found to be 1.92.

With A67G A94G, the self-cleavage amounted to 1.74.

On to U70A U127A, for which the self-cleavage amounted to 2.27.

As to A67G A78G, the self-cleavage was 0.21.

Take U70C A86G: the self-cleavage was 0.86.

A68G U70A: the self-cleavage was 1.12.

As to U70C U103C, the self-cleavage was found to be 0.56.

Take A69G U97C: the self-cleavage stood at 0.98.

Take A66U G80A: the self-cleavage was 0.05.

Regarding A67G C107A, the self-cleavage amounted to 0.04.

As for A66U A129G, the self-cleavage turned out to be 0.39.

For A66U A129U, the self-cleavage amounted to 0.61.

With A69G A118U, the self-cleavage came out at 0.56.

Take A69U A126U: the self-cleavage came out at 0.72.

Turning to U70C U127A, the self-cleavage is 0.95.

For A68G G136A, the self-cleavage turned out to be 1.44.

Take A68G G136C: the self-cleavage was 1.93.

As for A68U A96G, the self-cleavage turned out to be 1.98.

Turning to A67G A126U, the self-cleavage amounted to 0.87.

Regarding A68U A86G, the self-cleavage stood at 1.44.

On to A69G C81A, for which the self-cleavage worked out at 0.15.

Regarding A69U A94U, the self-cleavage is 2.23.

Turning to A69U A86G, the self-cleavage worked out at 2.37.

Regarding A69G U72A, the self-cleavage is 0.19.

On to A69G U72C, for which the self-cleavage stood at 0.3.

Take A66U A114U: the self-cleavage is 0.04.

A66U A89U: the self-cleavage was 0.62.

As for A66U C85U, the self-cleavage turned out to be 1.09.

Turning to A67C U139C, the self-cleavage amounted to 2.18.

On to A69G U124C, for which the self-cleavage is 1.11.

Consider A69G G104C, for which the self-cleavage was determined as 0.01.

In the case of A69U A110G, the self-cleavage is 0.09.

A68U U87C: the self-cleavage was determined as 1.78.

Take A68U U87G: the self-cleavage turned out to be 0.38.

As to A69G C105G, the self-cleavage was 0.02.

As for U70C G74U, the self-cleavage was found to be 0.17.

As for A66U U127C, the self-cleavage was 0.58.

A67G A110G: the self-cleavage came out at 0.11.

In the case of A67G C101A, the self-cleavage turned out to be 0.19.

In the case of A67G C77A, the self-cleavage was 0.71.

Take A68G U102C: the self-cleavage came to 1.9.

With A67C A89U, the self-cleavage turned out to be 2.57.

U70C A134G: the self-cleavage was found to be 0.72.

Turning to U70C A118U, the self-cleavage came out at 0.18.

In the case of A69U U97A, the self-cleavage was found to be 2.51.

Consider U70C A140G, for which the self-cleavage was determined as 0.38.

Regarding U70C A140U, the self-cleavage worked out at 0.96.

As to A69U U120A, the self-cleavage stood at 1.84.

In the case of A69C A90G, the self-cleavage came to 0.37.

A68G A140G: the self-cleavage turned out to be 1.91.

For A68G U103A, the self-cleavage amounted to 0.5.

In the case of A68G U103C, the self-cleavage was determined as 0.96.

For the variant A68G A134G, the self-cleavage was 1.5.

Take A68U A126G: the self-cleavage is 0.6.

Turning to U70G A82U, the self-cleavage was found to be 0.2.

For the variant U70C A111U, the self-cleavage was found to be 0.07.

In the case of A66U A125G, the self-cleavage amounted to 0.25.

With A67G A69G, the self-cleavage was 0.77.

For the variant A69G G79U, the self-cleavage was determined as 0.1.

A67G A117G: the self-cleavage was 1.66.

Consider A67G A117U, for which the self-cleavage was 0.32.

Turning to A67G A117C, the self-cleavage was determined as 0.17.

For A67U U87C, the self-cleavage worked out at 1.29.

As for A67U A90G, the self-cleavage amounted to 1.72.
